“Also recorded” adds a separate entry of the source.
Tests used:
RGCs [1] = assay: ligand binding assay with AP-oncomodulin fusion proteins on immunopurified RGCs; set-up: species or system rat
Description: Adult rat retinal cells were dissociated as above and then isolated by immunopanning^31,46 using antibody MAC1 followed by an antibody to Thy1 (Chemicon). Purity was ˜98% based upon counting Fluorogold-labeled versus total cells. RGCs, treated with or without forskolin, were lightly fixed after 14-16 h in culture (4% paraformaldehyde (PFA), 6 min) before binding assays.
Binding assays were carried out as described^48 with slight modifications. Briefly, lightly fixed, immunopurified RGCs were incubated with AP-OM or AP (37° C., 24 h).
After extensive rinsing, cells were fixed again, heated (65° C., 90 min) to destroy endogenous AP and incubated with nitro blue tetrazolium chloride/5-bromo-4-chloro-3-indoyl phosphate toluidine salt (BCIPINBT). In some instances, AP-OM or AP (control), with or without forskolin, was added to the cultures before the initial fixation. Absorbance was measured with Image J software (US National Institutes of Health) and corrected by subtracting the level of AP binding. Binding curves and Scatchard plots were generated using Prism software. For displacement studies, varying concentrations of unlabeled oncomodulin were added to cultures after the equilibrium binding of 40 mM AP-OM at 37° C. for 24 h.

RGCs [2] = assay: axon outgrowth in primary adult retinal cultures; format: cell-based, rat
Description: Protein A beads (Sigma) were incubated with either rabbit anti-OM antiserum (Swant) or normal rabbit serum (Invitrogen) for 16 h at 4° C. After extensive rinsing, beads with adsorbed IgGs were mixed with MCM (1 ml 10× concentrate, collected 8 h after zymosan treatment) for 24 h at 4° C. and then pelleted down by centrifugation. We tested 5 μl of the supernatants or untreated MCM for oncomodulin by western blotting. Bioactivity of immune-depleted and control MCM was tested in dissociated RGC cultures as described below at a 1:4 dilution, a concentration found to give a near-maximal response.
(§1) Adult rat retinal cultures were prepared as described^21. […] One week later, retinas were dissected, dissociated, and the cells plated in defined, serum-free medium. Axon growth (% RGCs extending axons ≧30 μm, ≧70 μm or ≧140 μm in length) was evaluated after 3 d in quadruplicate samples in a blinded fashion. All experiments were repeated at least three separate times. In some instances, cells were immunostained with GAP-43 antibody (1:500, Chemicon).

RGCs [3] = assay: RGC survival in primary retinal cultures; format: cell-based, rat; details: retinal culture
Description: as §1

DRG neurons [4] = assay: neurite outgrowth of naive DRG neurons in culture; format: cell-based, rat; details: 3 d culture
Description: (§2) L4-L5 DRGs from adult male Sprague-Dawley rats (250-300 g) were injected with 5 μl of saline or oncomodulin (200 ng μl^−1). After 7 d, injected ganglia were dissected and single-cell suspensions were prepared as described^50. Cells were cultured on laminin (Sigma) with or without CSPGs (Chemicon) for 20 h or 40 h. In some cases, chondroitinase ABC (0.5 U ml^−1, Seikagaku) was added. Neurite outgrowth was visualized by Tuj1 antibody to class III β-tubulin (1:5,000, Babco) and quantified in quadruplicate samples by a blinded observer. In other studies, L4-L5 DRG neurons were cultured in the presence of absence of oncomodulin, mannose and/or forskolin in RPMI-1640 to limit spontaneous outgrowth. Cells were fixed and immunostained after 3 d and evaluated for outgrowth.

DRG neurons [5] = assay: neurite outgrowth of DRG neurons cultured after intraganglionic injection in vivo; format: cell-based, rat
Description: as §2

optic nerve = optic nerve regeneration in vivo after nerve crush, intraocular PLGA microspheres; set-up: species or system rat; details: 2 weeks, agent by itself
Description: Microspheres were prepared from lyophilized oncomodulin or sp-8-Br-cAMPs (Sigma) with PLGA using the solvent evaporation method of single emulsion^49. To measure the rate of protein release in vitro, 10 mg of oncomodulin-containing beads were incubated in phosphate-buffered saline (PBS; 37° C.). Supernatants were collected every 3 d and analyzed on western blots.
Optic nerve surgery was carried out on male Fisher rats (200-250 g) as described^18. Three days after nerve crush, rats received intraocular injections of blank microspheres or microspheres containing oncomodulin, sp-8-Br-cAMPs or both, in 10 μl saline after the same fluid volume was withdrawn from the eye (n=8-12 per group). Rats were killed 2 weeks later and their retinas, with optic nerves attached, were prepared as described^18,21. Axon growth was evaluated by GAP-43 immunostaining in the optic nerve at distances of 500 μm and 1 mm from the injury site^18,21. The length of the longest axon was measured in each case and averaged across all cases within each group.

P-CREB = P-CREB immunostaining in RGCs after intravitreous injection; format: in vivo, rat; details: 2 h after intravitreous injection, 1 μg μl^−1, 5 μl
Description: To investigate the immediate effects of oncomodulin in vivo, rats received an intravitreous injection of the protein (1 μg μl^−1, 5 μl volume, n=6) and were killed 2 h later. Retinal sections were immunostained to detect the phosphorylated form of the transcriptional activator CREB (antibody to P-CREB, 1:100, Cell Signaling Technology). Fluorescent photomicrographs were taken 2 mm from the optic nerve head.

[6] = in the absence of forskolin and mannose
[7] = in the presence of forskolin and mannose, 3 d, BDNF 50 ng ml^−1, CNTF 10 ng ml^−1, GDNF 50 ng ml^−1

B1: AP-OM: alkaline phosphatase (AP)-oncomodulin fusion protein (protein)
chain: MSITDILSAEDIAAALQECQDPDTFEPQKFFQTSGLSKMSASQVKDIFRFIDNDQSGYLDGDELKYFLQKFQSDARELTESETKSLMDAADNDGDGKIGADEFQEMVHS
modifications: left off: large carriers; small tags and cut ends
notes: alkaline phosphatase (AP)-oncomodulin fusion protein
RGCs [1]; [cAMP]i elevated with forskolin
  binding to RGCs: bound strongly
RGCs [1]; basal conditions (no forskolin)
  binding to RGCs: Neither AP-OM nor AP showed appreciable binding
RGCs [1]; untreated RGCs permeabilized after light fixation, no forskolin
  binding to RGCs: bound even without previous forskolin treatment

B2: CNTF: ciliary neurotrophic factor (protein, UniProt P26441 1-200, looked up)
Ciliary neurotrophic factor: MAFTEHSPLTPHRRDLCSRSIWLARKIRSDLTALTESYVKHQGLNKNINLDSADGMPVASTDQWSELTEAERLQENLQAYRTFHVLLARLLEDQQVHFTPTEGDFHQAIHTLLLQVAAFAYQIEELMILLEYKIPRNEADGMPINVGDGGLFEKKLWGLKVLQELSQWTVRSIHDLRFISSHQTGIPARGSHYIANNKKM
RGCs [2]; [6]
  axon outgrowth from RGCs in culture: Neither oncomodulin nor any of the other factors stimulated outgrowth
RGCs [2]; [7]
  axon outgrowth from RGCs in culture: increased axon growth

B3: oncomodulin: 11.7-kDa Ca2+-binding protein secreted by macrophages; recombinant rat oncomodulin expressed in Escherichia coli (protein)
chain: SITDILSAEDIAAALQECQDPDTFEPQKFFQTSGLSKMSASQVKDIFRFIDNDQSGYLDGDELKYFLQKFQSDARELTESETKSLMDAADNDGDGKIGADEFQEMVHS
RGCs [3]
  RGC survival: Neither oncomodulin nor any other factor enhanced RGC survival above baseline
DRG neurons [4]
  outgrowth of previously untreated DRG neurons: acts on previously untreated DRG neurons
DRG neurons [5]; CSPG substrate
  DRG neurite outgrowth on nonpermissive substrate: promoted some outgrowth; also recorded: stimulated some outgrowth
DRG neurons [5]; exposed in vivo 1 week, poly-D-lysine+laminin, vs vehicle
  DRG neurite outgrowth on permissive substrate: considerably greater outgrowth
RGCs [1]; AP-OM binding to RGCs
  concentration at which binding saturated: greater than 100 nM
RGCs [1]; AP-OM, forskolin-treated RGCs, Scatchard plot, read-out: dissociation constant (Kd), binding to RGCs
  Kd: 28 ± 5 nM
RGCs [1]; displacement of AP-OM by unlabeled oncomodulin, read-out: IC50, reversibility of binding to RGCs
  IC50: ~30 nM
RGCs [1]; excess unlabeled competitor (100-fold)
  displacement of AP-OM from RGCs: displaced AP-OM from RGCs
Optic nerve
  axon regeneration in optic nerve: had no effect
P-CREB
  level of P-CREB in RGCs: markedly increased
RGCs [2]; RGCs, forskolin and mannose present, read-out: effective concentration for half-maximum response (EC50), axon outgrowth
  EC50: ~3.8 nM
RGCs [2]; [6]
  axon outgrowth from RGCs in culture: Neither oncomodulin nor any of the other factors stimulated outgrowth
RGCs [2]; [7]
  axon outgrowth from RGCs in culture: nearly doubled the amount of outgrowth

B4: BDNF: brain-derived neurotrophic factor (protein, UniProt P23560 19-247, looked up)
Neurotrophic factor BDNF …: APMKEANIRGQGGLAYPGVRTHGTLESVNGPKAGSRGLTSLADTFEHVIEELLDEDQKVRPNEENNKDADLYTSRVMLSSQVPLEPPLLFLLEEYKNYLDAANMSMRVRRHSDPARRGELSVCDSISEWVTAADKKTAVDMSGGTVTVLEKVPVSKGQLKQYFYETKCNPMGYTKEGCRGIDKRHWNSQCRTTQSYVRALTMDSKKRIGWRFIRIDTSCVCTLTIKRGR
RGCs [2]; [6]
  axon outgrowth from RGCs in culture: Neither oncomodulin nor any of the other factors stimulated outgrowth
RGCs [2]; [7]
  axon outgrowth from RGCs in culture: ineffective

From patent US20090156496A1, “METHODS AND COMPOSITIONS FOR TREATING AND PREVENTING PERIPHERAL NERVE DAMAGE” (CHILDREN'S MEDICAL CENTER CORPORATION, INC., priority 2006, published 2009)
